Test results as given in patent US6534281.

How the values were obtained:
human C-peptide (human) [1] = assay: sandwich immunoassay, one-step; CPT-3F-11 on particles, labeled antibody 9101
human C-peptide (human) [2] = assay: sandwich immunoassay, two-step; CPT-3F-11 on particles, labeled antibody 9101
human C-peptide (human) [3] = assay: sandwich immunoassay, one-step; CPT-3F-11 on particles, labeled antibody PEP-001
human C-peptide (human) [4] = assay: sandwich immunoassay, two-step; CPT-3F-11 on particles, labeled antibody PEP-001
human C-peptide (human) [5] = assay: ELISA on immobilized C-peptide; labeled antibody 10 ug/ml, free C-peptide 0 ug/ml
human C-peptide (human) [6] = assay: ELISA on immobilized C-peptide; labeled antibody 0.1 ug/ml, free C-peptide 0 ug/ml
human C-peptide (human) [7] = assay: ELISA on immobilized C-peptide; labeled antibody 1.0 ug/ml, free C-peptide 0 ug/ml
human C-peptide (human) [8] = assay: ELISA on immobilized C-peptide; labeled antibody 1.0 ug/ml, free C-peptide 10 ug/ml
human C-peptide (human) [9] = assay: ELISA on immobilized C-peptide; labeled antibody 10 ug/ml, free C-peptide 0.1 ug/ml
human C-peptide (human) [10] = assay: ELISA on immobilized C-peptide; labeled antibody 10 ug/ml, free C-peptide 1.0 ug/ml
human C-peptide (human) [11] = assay: ELISA on immobilized C-peptide; labeled antibody 0.1 ug/ml, free C-peptide 0.1 ug/ml
human C-peptide (human) [12] = assay: ELISA on immobilized C-peptide; labeled antibody 0.1 ug/ml, free C-peptide 1.0 ug/ml
human C-peptide (human) [13] = assay: ELISA on immobilized C-peptide; labeled antibody 1.0 ug/ml, free C-peptide 1.0 ug/ml
human C-peptide (human) [14] = assay: ELISA on immobilized C-peptide; labeled antibody 0.0 ug/ml (blank), free C-peptide 0 ug/ml
human C-peptide (human) [15] = assay: ELISA on immobilized C-peptide; labeled antibody 0.0 ug/ml (blank), free C-peptide 10 ug/ml
human C-peptide (human) [16] = assay: ELISA on immobilized C-peptide; labeled antibody 0.0 ug/ml (blank), free C-peptide 0.1 ug/ml
human C-peptide (human) [17] = assay: ELISA on immobilized C-peptide; labeled antibody 0.0 ug/ml (blank), free C-peptide 1.0 ug/ml
human C-peptide (human) [18] = assay: ELISA on immobilized C-peptide; labeled antibody 0.1 ug/ml, free C-peptide 0 ug/ml (reference)
human C-peptide (human) [19] = assay: ELISA on immobilized C-peptide; labeled antibody 1.0 ug/ml, free C-peptide 0 ug/ml (reference)
human proinsulin (human) [20] = target: human proinsulin (human) (UniProt P01308); assay: sandwich immunoassay, one-step; proinsulin 50 ng/ml; CPT-3F-11 on particles, labeled antibody 9101
Chain of UniProt P01308 (P01308 25-110): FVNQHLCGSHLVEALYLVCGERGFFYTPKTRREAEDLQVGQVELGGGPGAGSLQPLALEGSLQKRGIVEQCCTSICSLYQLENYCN

human proinsulin (human) [21] = target: human proinsulin (human) (UniProt P01308); assay: sandwich immunoassay, two-step; proinsulin 50 ng/ml; CPT-3F-11 on particles, labeled antibody 9101
human proinsulin (human) [22] = target: human proinsulin (human) (UniProt P01308); assay: sandwich immunoassay, one-step; proinsulin 400 ng/ml; CPT-3F-11 on particles, labeled antibody 9101
human proinsulin (human) [23] = target: human proinsulin (human) (UniProt P01308); assay: sandwich immunoassay, two-step; proinsulin 200 ng/ml; CPT-3F-11 on particles, labeled antibody 9101
human proinsulin (human) [24] = target: human proinsulin (human) (UniProt P01308); assay: sandwich immunoassay, two-step; proinsulin 400 ng/ml; CPT-3F-11 on particles, labeled antibody 9101
human proinsulin (human) [25] = target: human proinsulin (human) (UniProt P01308); assay: sandwich immunoassay, one-step, against C-peptide calibration; proinsulin 400 ng/ml; CPT-3-F11 on particles, labeled antibody 9101
human proinsulin (human) [26] = target: human proinsulin (human) (UniProt P01308); assay: sandwich immunoassay, two-step, against C-peptide calibration; proinsulin 50 ng/ml; CPT-3-F11 on particles, labeled antibody PEP-001
human proinsulin (human) [27] = target: human proinsulin (human) (UniProt P01308); assay: sandwich immunoassay, one-step, against C-peptide calibration; proinsulin 200 ng/ml; CPT-3-F11 on particles, labeled antibody PEP-001
human proinsulin (human) [28] = target: human proinsulin (human) (UniProt P01308); assay: sandwich immunoassay, one-step, against C-peptide calibration; proinsulin 400 ng/ml; CPT-3-F11 on particles, labeled antibody PEP-001
human proinsulin (human) [29] = target: human proinsulin (human) (UniProt P01308); assay: sandwich immunoassay, two-step, against C-peptide calibration; proinsulin 200 ng/ml; CPT-3-F11 on particles, labeled antibody PEP-001
[30] = target: modified C-peptide (human C-peptide having Arg-Arg bound to its N-terminal and Lys-Arg bound to its C-terminal) (human); assay: sandwich immunoassay, one-step, against C-peptide calibration; modified C-peptide 5 ng/ml; CPT-3F-11 on particles, labeled antibody 9101
Chain of modified C-peptide (human C-peptide having Arg-Arg bound to its N-terminal and Lys-Arg bound to its C-terminal) (human) (peptide, as listed by the source): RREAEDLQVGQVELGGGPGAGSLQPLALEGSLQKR

[31] = target: modified C-peptide (human C-peptide having Arg-Arg bound to its N-terminal and Lys-Arg bound to its C-terminal) (human); assay: sandwich immunoassay, two-step, against C-peptide calibration; modified C-peptide 5 ng/ml; CPT-3F-11 on particles, labeled antibody 9101
[32] = target: modified C-peptide (human C-peptide having Arg-Arg bound to its N-terminal and Lys-Arg bound to its C-terminal) (human); assay: sandwich immunoassay, one-step, against C-peptide calibration; modified C-peptide 5 ng/ml; CPT-3F-11 on particles, labeled antibody PEP-001
[33] = target: modified C-peptide (human C-peptide having Arg-Arg bound to its N-terminal and Lys-Arg bound to its C-terminal) (human); assay: sandwich immunoassay, two-step, against C-peptide calibration; modified C-peptide 5 ng/ml; CPT-3F-11 on particles, labeled antibody PEP-001

Chain of human C-peptide (human) (peptide, as listed by the source): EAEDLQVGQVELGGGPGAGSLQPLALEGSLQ

2S/N value (human C-peptide (human) [1]): 0.008 ng/mL | 2S/N value (human C-peptide (human) [2]): 0.005 ng/mL | 2S/N value (human C-peptide (human) [3]): 0.012 ng/mL | 2S/N value (human C-peptide (human) [4]): 0.006 ng/mL | Absorbance (absorbance at 405 nm) (human C-peptide (human) [5]): 2.17 | Absorbance (absorbance at 405 nm) (human C-peptide (human) [6]): 1.52 | Absorbance (absorbance at 405 nm) (human C-peptide (human) [7]): 1.94 | Absorbance (absorbance at 405 nm) (human C-peptide (human) [8]): 0.003 | Binding Ratio (human C-peptide (human) [8]): 0.2% | Absorbance (absorbance at 405 nm) (human C-peptide (human) [9]): 0.336 | Binding Ratio (human C-peptide (human) [9]): 15.5% | Absorbance (absorbance at 405 nm) (human C-peptide (human) [10]): 0.059 | Binding Ratio (human C-peptide (human) [10]): 2.7% | Absorbance (absorbance at 405 nm) (human C-peptide (human) [11]): 0.179 | Binding Ratio (human C-peptide (human) [11]): 11.8% | Absorbance (absorbance at 405 nm) (human C-peptide (human) [12]): 0.026 | Binding Ratio (human C-peptide (human) [12]): 1.7% | Absorbance (absorbance at 405 nm) (human C-peptide (human) [13]): 0.062 | Binding Ratio (human C-peptide (human) [13]): 3.2% | Absorbance (absorbance at 405 nm) (human C-peptide (human) [14]): 0 | Binding Ratio (human C-peptide (human) [14]): 0% | Absorbance (absorbance at 405 nm) (human C-peptide (human) [15]): 0 | Binding Ratio (human C-peptide (human) [15]): 0% | Absorbance (absorbance at 405 nm) (human C-peptide (human) [16]): 0 | Binding Ratio (human C-peptide (human) [16]): 0% | Absorbance (absorbance at 405 nm) (human C-peptide (human) [17]): 0 | Binding Ratio (human C-peptide (human) [17]): 0% | Binding Ratio (human C-peptide (human) [18]): 100% | Binding Ratio (human C-peptide (human) [19]): 100% | counts of chemiluminescence (human proinsulin (human) [20]): 4140 counts | counts of chemiluminescence (human proinsulin (human) [21]): 4400 counts | counts of chemiluminescence (human proinsulin (human) [22]): 118000 counts | counts of chemiluminescence (human proinsulin (human) [23]): 42500 counts | counts of chemiluminescence (human proinsulin (human) [24]): 99400 counts | Cross-reactivity (%) to Human Proinsulin (human proinsulin (human) [25]): 3% | Cross-reactivity (%) to Human Proinsulin (human proinsulin (human) [26]): 41.1% | Cross-reactivity (%) to Human Proinsulin (human proinsulin (human) [27]): > 30% | Cross-reactivity (%) to Human Proinsulin (human proinsulin (human) [28]): > 15% | Cross-reactivity (%) to Human Proinsulin (human proinsulin (human) [29]): > 30% | Cross-reactivity (%) to Modified C-peptide [30]: 0.5% | Cross-reactivity (%) to Modified C-peptide [31]: 0.5% | Cross-reactivity (%) to Modified C-peptide [32]: 62.7% | Cross-reactivity (%) to Modified C-peptide [33]: 53.2%
Substance: anti-human C-peptide monoclonal antibody CPT-3-F11 (Dako)
